According to the RNAGym collection of RNA variant scans (doi:10.7554/elife.80360):

B1: Hairpin Ribozyme (parent)
chain: GUCCUCUUUCACGUGCGCGUGAAAGAGAGAAGUGAACCAGAGAAACACACGUUGUGGUAUAUUACCUGGUA

Variants of: B1
Experiment: self-cleavage, relative activity (ratio to wild type); higher = more cleavage; co-transcriptional

Row | Variant | self-cleavage
1 | G29U G32C | 0.105
2 | G29U G34A | 0.0892
3 | G29U G42A | 0.0859
4 | G29U G42C | 0.115
5 | G29U G51C | 0.167
6 | G29U G54U | 0.207
7 | G29U G56A | 0.162
8 | G29U G57C | 0.108
9 | G29U G57U | 0.149
10 | G29U G68C | 0.137
11 | G29U U33A | 0.169
12 | G29U U33C | 0.165
13 | G29U U52A | 0.124
14 | G29U U53G | 0.102
15 | G29U U58C | 0.18
16 | G29U U60C | 0.107
17 | G29U U62G | 0.0909
18 | G29U U63A | 0.146
19 | G29U U67A | 0.0852
20 | G29U U67G | 0.132
21 | G29U U70A | 0.21
22 | A30C | 0.183
23 | A30C A31C | 0.159
24 | A30C A31G | 0.141

Row | Variant | self-cleavage
25 | A30C A35C | 0.181
26 | A30C A36C | 0.164
27 | A30C A36G | 0.223
28 | A30C A39G | 0.1
29 | A30C A41U | 0.364
30 | A30C A43G | 0
31 | A30C A45C | 0.126
32 | A30C A47C | 0.156
33 | A30C A71C | 0.592
34 | A30C A71G | 0.247
35 | A30C C46U | 0.367
36 | A30C C48A | 0.103
37 | A30C C50G | 0.142
38 | A30C C65G | 0.166
39 | A30C C66G | 0.248
40 | A30C G34A | 0.0999
41 | A30C G54U | 0.0809
42 | A30C G57A | 0.158
43 | A30C G57C | 0.0882
44 | A30C G68C | 0.172
45 | A30C G68U | 0.141
46 | A30C G69U | 0.124
47 | A30C U33A | 0.0224
48 | A30C U52G | 0.113

Row | Variant | self-cleavage
49 | A30C U58C | 0.158
50 | A30C U60A | 0.12
51 | A30C U62G | 0.134
52 | A30G | 0.153
53 | A30G A31C | 0.111
54 | A30G A31U | 0.125
55 | A30G A39U | 0.138
56 | A30G A41U | 0.244
57 | A30G A43U | 0.221
58 | A30G A44C | 0.169
59 | A30G A44G | 0.108
60 | A30G A45U | 0.177
61 | A30G A47C | 0.152
62 | A30G A47G | 0.0575
63 | A30G A49C | 0.0806
64 | A30G A49G | 0.0332
65 | A30G A49U | 0.0894
66 | A30G A61G | 0.224
67 | A30G A64C | 0.0804
68 | A30G A64G | 0.141
69 | A30G A64U | 0.159
70 | A30G A71G | 0.109
71 | A30G C37U | 0.136
72 | A30G C46A | 0.202

Row | Variant | self-cleavage
73 | A30G C50G | 0.177
74 | A30G C65U | 0.125
75 | A30G C66A | 0.192
76 | A30G C66G | 0.184
77 | A30G G34U | 0.932
78 | A30G G40U | 0.0805
79 | A30G G42A | 0.113
80 | A30G G42C | 0.169
81 | A30G G51U | 0.157
82 | A30G G54A | 0.102
83 | A30G G56A | 0.0987
84 | A30G G56U | 0.133
85 | A30G G69U | 0.0631
86 | A30G U33C | 0.0632
87 | A30G U52A | 0.112
88 | A30G U52C | 0.116
89 | A30G U55A | 0.122
90 | A30G U55G | 0.232
91 | A30G U58A | 0.0366
92 | A30G U58G | 0.19
93 | A30G U60A | 0.125
94 | A30G U60G | 0.158
95 | A30G U62C | 0.13
96 | A30G U63A | 0.0503

Row | Variant | self-cleavage
97 | A30G U63C | 0.185
98 | A30G U63G | 0.101
99 | A30G U67C | 0.119
100 | A30G U67G | 0.0921
101 | A30U | 0.142
102 | A30U A31G | 0.143
103 | A30U A35C | 0.0881
104 | A30U A35U | 0.196
105 | A30U A36C | 0.0422
106 | A30U A36G | 0.248
107 | A30U A41C | 0.256
108 | A30U A45G | 0.236
109 | A30U A45U | 0.129
110 | A30U A47G | 0.0659
111 | A30U A59C | 0.153
112 | A30U A64C | 0.174
113 | A30U A64G | 0.106
114 | A30U C37A | 0.0959
115 | A30U C37G | 0.0899
116 | A30U C46A | 0.128
117 | A30U C46G | 0.252
118 | A30U C50A | 0.221
119 | A30U C50U | 0.0896
120 | A30U C65A | 0.14

Row | Variant | self-cleavage
121 | A30U C66U | 0.083
122 | A30U G34A | 0.216
123 | A30U G40U | 0.129
124 | A30U G54C | 0.0714
125 | A30U G56C | 0.15
126 | A30U U33C | 0.196
127 | A30U U52A | 0.158
128 | A30U U55C | 0.179
129 | A30U U58C | 0.107
130 | A30U U58G | 0.155
131 | A30U U60C | 0.306
132 | A30U U60G | 0.0766
133 | A30U U63C | 0.0881
134 | A31C | 0.131
135 | A31C A35G | 0.13
136 | A31C A39G | 0.09
137 | A31C A39U | 0.183
138 | A31C A41G | 0.102
139 | A31C A41U | 0.109
140 | A31C A43C | 0.25
141 | A31C A43G | 0.107
142 | A31C A44C | 0.128
143 | A31C A45G | 0.0362
144 | A31C A45U | 0.0614

Row | Variant | self-cleavage
145 | A31C A47C | 0.0953
146 | A31C A47U | 0.192
147 | A31C A49C | 0.149
148 | A31C A49U | 0.151
149 | A31C A64C | 0.134
150 | A31C C37G | 0.146
151 | A31C C38U | 0.131
152 | A31C C48A | 0.115
153 | A31C C48G | 0.103
154 | A31C C50U | 0.0888
155 | A31C G34A | 0.163
156 | A31C G40A | 0.131
157 | A31C G40U | 0.0621
158 | A31C G42C | 0.163
159 | A31C G42U | 0.092
160 | A31C G51C | 0.182
161 | A31C G54C | 0.198
162 | A31C G54U | 0.0998
163 | A31C G69U | 0.0958
164 | A31C U33C | 0.18
165 | A31C U52A | 0.28
166 | A31C U52C | 0.196
167 | A31C U53C | 0.0661
